Paper PMC3040281 (Biochemistry, 2011)

T1: YghU (Escherichia coli, UniProt Q46845)
T1 sequence (Q46845 1-288): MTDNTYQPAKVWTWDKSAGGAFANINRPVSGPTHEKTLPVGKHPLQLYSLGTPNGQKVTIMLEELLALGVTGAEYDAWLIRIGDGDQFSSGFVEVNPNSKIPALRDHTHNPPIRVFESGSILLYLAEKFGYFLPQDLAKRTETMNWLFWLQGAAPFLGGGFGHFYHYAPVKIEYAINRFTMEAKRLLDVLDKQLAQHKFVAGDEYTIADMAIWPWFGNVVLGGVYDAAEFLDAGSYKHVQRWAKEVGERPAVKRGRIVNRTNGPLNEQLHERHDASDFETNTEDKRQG

B1: YghU (enzyme, Escherichia coli K-12, UniProt Q46845 1-288, looked up)
chain: T1 sequence (Q46845 1-288)

How the values were obtained:
YghU = molecular target: T1, YghU; assay: intrinsic protein fluorescence titration, single-site fit; format: binding
purified protein [1] = substrate: CC(C)(OO)c1ccccc1; assay: purified protein; format: biochemical, Escherichia coli; conditions: GSH co-substrate, 100 mM KH2PO4, pH 7.0, 25 °C
purified protein [2] = substrate: CCCCC[C@@H](/C=C/C=C\C/C=C\C/C=C\CCCC(=O)O)OO; assay: purified protein; format: biochemical, Escherichia coli; conditions: 3 mM GSH, 100 mM KH2PO4, pH 7.0, 0.005% BSA, 25 °C
purified protein [3] = substrate: CCCCC[C@@H](/C=C/C=C\CCCCCCCC(=O)O)OO; assay: purified protein; format: biochemical, Escherichia coli; conditions: GSH co-substrate, 100 mM KH2PO4, pH 7.0, 25 °C
SEC = molecular target: the molecule itself; assay: SEC

| Kd (YghU) | Molecule | Km (purified protein [1]) | kcat (purified protein [1]) | kcat/Km (purified protein [1]) | Km (purified protein [2]) | kcat (purified protein [2]) | kcat/Km (purified protein [2]) | Km (purified protein [3]) | kcat (purified protein [3]) | kcat/Km (purified protein [3]) | stoichiometry N (SEC) |
| --- | --- | --- | --- | --- | --- | --- | --- | --- | --- | --- | --- |
| 1 ± 0.1 mM | NCCCCNCCCNC(=O)CNC(=O)[C@H](CS)NC(=O)CC[C@H](N)C(=O)O [GspSH] | – | – | – | – | – | – | – | – | – | – |
| – | B1 | 16 ± 2 µM | 0.05 ± 0.001 s⁻¹ | 3500 ± 400 M⁻¹ s⁻¹ | 28 ± 4 µM | 0.096 ± 0.004 s⁻¹ | 3400 ± 1500 M⁻¹ s⁻¹ | 130 ± 30 µM | 0.19 ± 0.02 s⁻¹ | 1500 ± 400 M⁻¹ s⁻¹ | 2 |
